Changes are numbered by the printed parent chain. Names may count otherwise.
Molecular target: T1, soluble human CD40 extracellular domain (human, UniProt P25942 21-193)
T1 construct: Produced in house; also called hCD40; soluble hCD40 extracellular domain
Experiment: SPR, Ab captured from supernatant on protein A, hCD40 ECD analyte
Description: The titer data (Table 21) were used to normalize the antibody concentration in each supernatant to 3 μg/ml, and these antibodies were captured out of the supernatants on a protein A CMS Series S sensor chip (GE Healthcare), and tested for binding to two concentrations (5 nM and 50 nM) of soluble hCD40 extracellular domain.
CD40 binding SPR of antibody supernatants: Surface plasmon resonance (SPR) studies were conducted on a BIAcore™ T200 instrument (GE Healthcare, Chicago Ill.). A Series S Protein A sensor chip (GE Healthcare, Chicago Ill.) was equilibrated with SPR running buffer of 10 mM NaPO₄, 130 mM NaCl, 0.05% tween 20, (PBS-T) pH 7.2 at 25° C. The 96 antibody supernatants were normalized to a concentration of 3 μg/ml by diluting with PBS-T using a PerkinElmer JANUS® G3 system (PerkinElmer, Akron, Ohio). After priming the system, the 3 μg/ml antibody samples were captured on the protein A surface for 30 s at 10 μl/min Binding of 50 nM and 500 nM human CD40 extracellular domain (produced in house) was evaluated using association time of 180 s at 30 μl/min, followed by a dissociation time of 180 s at 30 μl/min Regeneration between cycles was accomplished using two 15 s injections of 10 mM glycine pH 1.5. […] Data were analyzed using BIAcore™ T200 evaluation software by fitting to a 1:1 Langmuir model.

T1 sequence (P25942 21-193 limits assumed): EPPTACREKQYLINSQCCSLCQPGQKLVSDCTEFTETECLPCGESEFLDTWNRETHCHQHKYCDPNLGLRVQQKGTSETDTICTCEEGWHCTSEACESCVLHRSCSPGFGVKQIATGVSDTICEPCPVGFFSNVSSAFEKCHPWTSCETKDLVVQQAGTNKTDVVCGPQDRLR

B1: M17 (HC-wt / LC-K45Q) (antibody, human IgG1, kappa)
heavy: not shown
light: DIQMTQSPSFLSASVGDRVTITCKASQDVSTAVAWYQQKPGKAPQLLIYSASYRYTGVPSRFSGSGSGTDFTLTISSLQPEDFATYYCQQHYSTPWTFGGGTKVEIKRTVAAPSVFIFPPSDEQLKSGTASVVCLLNNFYPREAKVQWKVDNALQSGNSQESVTEQDSKDSTYSLSSTLTLSKADYEKHKVYACEVTHQGLSSPVTKSFNRGEC
notes: IgG1-P238K; also called HC1/LC2
  Kd: 4.1 nM

B2: M2 (HC-K12Q,K13Q / LC-wt) (antibody, human IgG1, kappa)
heavy: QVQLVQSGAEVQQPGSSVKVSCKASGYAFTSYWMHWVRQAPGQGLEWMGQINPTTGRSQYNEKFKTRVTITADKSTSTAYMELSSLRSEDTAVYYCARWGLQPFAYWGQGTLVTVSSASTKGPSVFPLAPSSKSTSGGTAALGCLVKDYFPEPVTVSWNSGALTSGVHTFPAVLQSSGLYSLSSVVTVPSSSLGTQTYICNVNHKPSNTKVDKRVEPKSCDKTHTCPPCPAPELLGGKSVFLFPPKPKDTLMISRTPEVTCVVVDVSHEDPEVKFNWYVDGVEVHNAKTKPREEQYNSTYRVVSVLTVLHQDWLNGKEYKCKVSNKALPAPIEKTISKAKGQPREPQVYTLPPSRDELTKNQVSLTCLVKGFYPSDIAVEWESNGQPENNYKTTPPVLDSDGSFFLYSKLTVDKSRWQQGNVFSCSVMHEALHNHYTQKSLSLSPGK
light: B1 light with Q45K
notes: IgG1-P238K; also called HC2/LC1
  Kd: 3.7 nM

B3: M3 (HC-K12Q,K13Q,K23Q / LC-wt) (antibody, human IgG1, kappa)
heavy: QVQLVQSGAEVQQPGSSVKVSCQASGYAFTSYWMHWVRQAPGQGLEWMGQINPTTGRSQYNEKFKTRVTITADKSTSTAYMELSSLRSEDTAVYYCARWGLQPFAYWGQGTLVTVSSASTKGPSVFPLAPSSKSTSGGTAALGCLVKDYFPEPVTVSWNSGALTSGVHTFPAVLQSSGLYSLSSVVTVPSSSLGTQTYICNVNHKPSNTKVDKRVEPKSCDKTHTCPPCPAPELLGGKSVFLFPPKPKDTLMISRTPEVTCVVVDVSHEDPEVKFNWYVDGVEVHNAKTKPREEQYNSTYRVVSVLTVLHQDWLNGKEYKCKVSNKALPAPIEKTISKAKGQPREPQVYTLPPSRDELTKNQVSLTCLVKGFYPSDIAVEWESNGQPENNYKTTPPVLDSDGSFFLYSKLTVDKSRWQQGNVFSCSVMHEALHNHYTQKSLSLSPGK
light: B1 light with Q45K
notes: IgG1-P238K; also called HC3/LC1
  Kd: 3.7 nM

B4: M5 (HC-K12E,K13Q,K23E / LC-wt) (antibody, human IgG1, kappa)
heavy: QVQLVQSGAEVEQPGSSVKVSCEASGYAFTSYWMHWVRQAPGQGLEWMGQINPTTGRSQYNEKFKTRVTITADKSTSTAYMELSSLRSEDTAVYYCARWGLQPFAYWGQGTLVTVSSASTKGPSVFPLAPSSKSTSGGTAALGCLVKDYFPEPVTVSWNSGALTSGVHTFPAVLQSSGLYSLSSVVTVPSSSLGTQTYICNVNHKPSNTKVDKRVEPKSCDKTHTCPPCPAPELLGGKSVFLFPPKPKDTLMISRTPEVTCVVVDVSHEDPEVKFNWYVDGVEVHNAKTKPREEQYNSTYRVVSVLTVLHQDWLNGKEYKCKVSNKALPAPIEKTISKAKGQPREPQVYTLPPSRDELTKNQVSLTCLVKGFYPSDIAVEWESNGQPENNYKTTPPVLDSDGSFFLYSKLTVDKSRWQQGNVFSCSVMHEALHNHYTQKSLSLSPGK
light: B1 light with Q45K
notes: IgG1-P238K; also called HC5/LC1
  Kd: 3.8 nM

B5: M6 (HC-K12V,K19S,K23A / LC-wt) (antibody, human IgG1, kappa)
heavy: not shown
light: B1 light with Q45K
notes: IgG1-P238K; also called HC6/LC1
  Kd: 3.8 nM

B6: M7 (HC-K23E / LC-wt) (antibody, human IgG1, kappa)
heavy: not shown
light: B1 light with Q45K
notes: IgG1-P238K; also called HC7/LC1
  Kd: 4.5 nM

B7: M8 (HC-R38Q,K63Q,R67Q / LC-wt) (antibody, human IgG1, kappa)
heavy: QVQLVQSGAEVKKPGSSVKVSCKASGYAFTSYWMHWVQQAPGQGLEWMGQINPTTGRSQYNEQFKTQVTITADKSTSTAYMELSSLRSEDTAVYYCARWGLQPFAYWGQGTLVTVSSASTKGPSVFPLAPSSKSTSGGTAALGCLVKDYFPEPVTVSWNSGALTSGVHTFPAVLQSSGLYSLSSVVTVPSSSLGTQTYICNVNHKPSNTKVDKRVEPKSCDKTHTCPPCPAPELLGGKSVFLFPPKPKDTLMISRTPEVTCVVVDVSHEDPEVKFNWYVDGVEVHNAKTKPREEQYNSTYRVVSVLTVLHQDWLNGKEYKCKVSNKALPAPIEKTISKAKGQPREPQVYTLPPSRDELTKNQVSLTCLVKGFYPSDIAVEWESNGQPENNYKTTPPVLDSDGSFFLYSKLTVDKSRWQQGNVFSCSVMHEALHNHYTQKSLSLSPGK
light: B1 light with Q45K
notes: IgG1-P238K; also called HC8/LC1
  Kd: 3.4 nM

B8: M9 (HC-K63Q,R67E / LC-wt) (antibody, human IgG1, kappa)
heavy: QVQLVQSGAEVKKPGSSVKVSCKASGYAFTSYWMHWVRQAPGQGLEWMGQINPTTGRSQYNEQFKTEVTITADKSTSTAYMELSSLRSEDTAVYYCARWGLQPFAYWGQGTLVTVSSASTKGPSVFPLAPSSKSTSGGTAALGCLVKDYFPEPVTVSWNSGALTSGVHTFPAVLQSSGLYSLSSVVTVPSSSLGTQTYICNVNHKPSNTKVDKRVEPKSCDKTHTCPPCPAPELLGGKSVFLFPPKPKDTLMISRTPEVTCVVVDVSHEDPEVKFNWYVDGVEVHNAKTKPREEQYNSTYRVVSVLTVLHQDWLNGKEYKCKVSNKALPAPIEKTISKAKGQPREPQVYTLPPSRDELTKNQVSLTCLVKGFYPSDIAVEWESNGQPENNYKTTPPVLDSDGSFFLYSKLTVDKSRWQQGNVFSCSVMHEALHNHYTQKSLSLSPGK
light: B1 light with Q45K
notes: IgG1-P238K; also called HC9/LC1
  Kd: 3.2 nM

B9: M11 (HC-R57E / LC-wt) (antibody, human IgG1, kappa)
heavy: not shown
light: B1 light with Q45K
notes: IgG1-P238K; also called HC11/LC1
  Kd: 10.2 nM

B10: M12 (HC-R57E,K74Q / LC-wt) (antibody, human IgG1, kappa)
heavy: not shown
light: B1 light with Q45K
notes: IgG1-P238K; also called HC12/LC1
  Kd: 14 nM

B11: M14 (HC-K74T / LC-wt) (antibody, human IgG1, kappa)
heavy: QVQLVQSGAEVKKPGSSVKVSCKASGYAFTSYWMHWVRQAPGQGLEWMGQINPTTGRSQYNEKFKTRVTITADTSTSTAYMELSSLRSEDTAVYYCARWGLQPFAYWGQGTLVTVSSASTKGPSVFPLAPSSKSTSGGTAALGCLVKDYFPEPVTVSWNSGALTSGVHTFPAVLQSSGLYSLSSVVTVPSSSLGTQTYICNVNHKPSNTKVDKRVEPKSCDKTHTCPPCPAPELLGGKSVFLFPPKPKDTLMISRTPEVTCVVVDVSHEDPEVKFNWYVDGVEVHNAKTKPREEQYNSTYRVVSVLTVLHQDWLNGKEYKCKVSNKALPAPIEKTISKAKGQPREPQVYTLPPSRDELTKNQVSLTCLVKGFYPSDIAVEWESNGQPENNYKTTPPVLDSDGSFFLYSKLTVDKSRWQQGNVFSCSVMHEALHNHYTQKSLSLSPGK
light: B1 light with Q45K
notes: IgG1-P238K; also called HC14/LC1
  Kd: 4 nM

B12: M15 (HC-R67Q / LC-wt) (antibody, human IgG1, kappa)
heavy: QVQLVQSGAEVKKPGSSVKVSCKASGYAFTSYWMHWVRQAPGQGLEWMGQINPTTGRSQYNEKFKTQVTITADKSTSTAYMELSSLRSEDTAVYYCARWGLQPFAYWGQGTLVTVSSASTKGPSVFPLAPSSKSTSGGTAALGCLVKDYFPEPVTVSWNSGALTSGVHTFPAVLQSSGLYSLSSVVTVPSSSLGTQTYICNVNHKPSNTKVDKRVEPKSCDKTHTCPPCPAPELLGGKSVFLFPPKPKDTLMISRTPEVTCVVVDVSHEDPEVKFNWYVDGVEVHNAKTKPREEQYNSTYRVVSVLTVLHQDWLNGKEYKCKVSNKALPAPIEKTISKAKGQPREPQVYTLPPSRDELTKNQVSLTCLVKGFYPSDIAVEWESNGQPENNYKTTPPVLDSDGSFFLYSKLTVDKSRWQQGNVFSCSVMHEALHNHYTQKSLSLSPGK
light: B1 light with Q45K
notes: IgG1-P238K; also called HC15/LC1
  Kd: 3.4 nM

B13: M16 (HC-K63Q / LC-wt) (antibody, human IgG1, kappa)
heavy: not shown
light: B1 light with Q45K
notes: IgG1-P238K; also called HC16/LC1
  Kd: 4.1 nM

B14: M18 (HC-K12Q,K13Q / LC-K45Q) (antibody, human IgG1, kappa)
heavy: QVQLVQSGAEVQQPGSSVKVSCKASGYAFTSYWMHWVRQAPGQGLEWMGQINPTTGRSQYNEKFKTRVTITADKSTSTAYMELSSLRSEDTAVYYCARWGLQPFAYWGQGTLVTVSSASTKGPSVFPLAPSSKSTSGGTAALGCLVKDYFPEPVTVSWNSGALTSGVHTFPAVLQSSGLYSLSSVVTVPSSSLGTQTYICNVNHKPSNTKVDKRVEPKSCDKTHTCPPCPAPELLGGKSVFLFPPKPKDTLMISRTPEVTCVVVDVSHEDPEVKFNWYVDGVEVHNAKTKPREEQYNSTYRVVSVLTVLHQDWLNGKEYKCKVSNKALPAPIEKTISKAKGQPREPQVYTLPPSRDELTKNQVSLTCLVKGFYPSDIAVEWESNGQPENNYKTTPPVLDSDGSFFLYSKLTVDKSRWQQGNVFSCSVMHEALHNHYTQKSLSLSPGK
light: B1 light
notes: IgG1-P238K; also called HC2/LC2
  Kd: 3.4 nM

B15: M19 (HC-K12Q,K13Q,K23Q / LC-K45Q) (antibody, human IgG1, kappa, V domains shown)
VH: QVQLVQSGAEVQQPGSSVKVSCQASGYAFTSYWMHWVRQAPGQGLEWMGQINPTTGRSQYNEKFKTRVTITADKSTSTAYMELSSLRSEDTAVYYCARWGLQPFAYWGQGTLVTVSS
VL: DIQMTQSPSFLSASVGDRVTITCKASQDVSTAVAWYQQKPGKAPQLLIYSASYRYTGVPSRFSGSGSGTDFTLTISSLQPEDFATYYCQQHYSTPWTFGGGTKVEIKR
notes: IgG1-P238K; also called HC3/LC2
  Kd: 3.8 nM

B16: M20 (HC-K12E / LC-K45Q) (antibody, human IgG1, kappa)
heavy: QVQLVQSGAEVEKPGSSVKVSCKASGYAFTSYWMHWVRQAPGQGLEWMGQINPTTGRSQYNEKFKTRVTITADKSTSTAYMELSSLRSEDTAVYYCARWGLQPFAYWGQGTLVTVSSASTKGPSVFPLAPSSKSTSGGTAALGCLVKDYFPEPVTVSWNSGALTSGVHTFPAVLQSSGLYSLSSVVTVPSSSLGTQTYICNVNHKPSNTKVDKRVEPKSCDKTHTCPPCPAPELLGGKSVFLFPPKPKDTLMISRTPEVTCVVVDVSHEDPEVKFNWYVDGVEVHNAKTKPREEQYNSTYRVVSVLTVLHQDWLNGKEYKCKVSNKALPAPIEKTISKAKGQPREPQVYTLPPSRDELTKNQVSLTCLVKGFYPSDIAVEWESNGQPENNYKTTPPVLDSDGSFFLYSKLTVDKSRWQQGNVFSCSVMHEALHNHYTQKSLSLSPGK
light: B1 light
notes: IgG1-P238K; also called HC4/LC2
  Kd: 3.3 nM

B17: M21 (HC-K12E,K13Q,K23E / LC-K45Q) (antibody, human IgG1, kappa)
heavy: not shown
light: B1 light
notes: IgG1-P238K; also called HC5/LC2
  Kd: 3.7 nM

B18: M22 (HC-K12V,K19S,K23A / LC-K45Q) (antibody, human IgG1, kappa, V domains shown)
VH: B15 VH with Q12V, Q13K, K19S, Q23A
VL: B15 VL
notes: IgG1-P238K; also called HC6/LC2
  Kd: 3.5 nM

B19: M23 (HC-K23E / LC-K45Q) (antibody, human IgG1, kappa)
heavy: not shown
light: B1 light
notes: IgG1-P238K; also called HC7/LC2
  Kd: 4.1 nM

B20: M24 (HC-R38Q,K63Q,R67Q / LC-K45Q) (antibody, human IgG1, kappa, V domains shown)
VH: B15 VH with Q12K, Q13K, Q23K, R38Q, K63Q, R67Q
VL: B15 VL
notes: IgG1-P238K; also called HC8/LC2
  Kd: 2.9 nM

B21: M25 (HC-K63Q,R67E / LC-K45Q) (antibody, human IgG1, kappa, V domains shown)
VH: B15 VH with Q12K, Q13K, Q23K, K63Q, R67E
VL: B15 VL
notes: IgG1-P238K; also called HC9/LC2
  Kd: 3.1 nM

B22: M26 (HC-R67E / LC-K45Q) (antibody, human IgG1, kappa, V domains shown)
VH: B15 VH with Q12K, Q13K, Q23K, R67E
VL: B15 VL
notes: IgG1-P238K; also called HC10/LC2
  Kd: 3 nM

B23: M27 (HC-R57E / LC-K45Q) (antibody, human IgG1, kappa, V domains shown)
VH: B15 VH with Q12K, Q13K, Q23K, R57E
VL: B15 VL
notes: IgG1-P238K; also called HC11/LC2
  Kd: 10.4 nM

B24: M28 (HC-R57E,K74Q / LC-K45Q) (antibody, human IgG1, kappa, V domains shown)
VH: B15 VH with Q12K, Q13K, Q23K, R57E, K74Q
VL: B15 VL
notes: IgG1-P238K; also called HC12/LC2
  Kd: 15.7 nM

B25: M29 (HC-E46K,E62K / LC-K45Q) (antibody, human IgG1, kappa, V domains shown)
VH: B15 VH with Q12K, Q13K, Q23K, E46K, E62K
VL: B15 VL
notes: IgG1-P238K; also called HC13/LC2
  Kd: 8.8 nM

B26: M30 (HC-K74T / LC-K45Q) (antibody, human IgG1, kappa, V domains shown)
VH: B15 VH with Q12K, Q13K, Q23K, K74T
VL: B15 VL
notes: IgG1-P238K; also called HC14/LC2
  Kd: 4 nM

B27: M31 (HC-R67Q / LC-K45Q) (antibody, human IgG1, kappa, V domains shown)
VH: B15 VH with Q12K, Q13K, Q23K, R67Q
VL: B15 VL
notes: IgG1-P238K; also called HC15/LC2
  Kd: 3.1 nM

B28: M32 (HC-K63Q / LC-K45Q) (antibody, human IgG1, kappa, V domains shown)
VH: B15 VH with Q12K, Q13K, Q23K, K63Q
VL: B15 VL
notes: IgG1-P238K; also called HC16/LC2
  Kd: 3.9 nM

B29: M34 (HC-K12Q,K13Q / LC-K45E) (antibody, human IgG1, kappa)
heavy: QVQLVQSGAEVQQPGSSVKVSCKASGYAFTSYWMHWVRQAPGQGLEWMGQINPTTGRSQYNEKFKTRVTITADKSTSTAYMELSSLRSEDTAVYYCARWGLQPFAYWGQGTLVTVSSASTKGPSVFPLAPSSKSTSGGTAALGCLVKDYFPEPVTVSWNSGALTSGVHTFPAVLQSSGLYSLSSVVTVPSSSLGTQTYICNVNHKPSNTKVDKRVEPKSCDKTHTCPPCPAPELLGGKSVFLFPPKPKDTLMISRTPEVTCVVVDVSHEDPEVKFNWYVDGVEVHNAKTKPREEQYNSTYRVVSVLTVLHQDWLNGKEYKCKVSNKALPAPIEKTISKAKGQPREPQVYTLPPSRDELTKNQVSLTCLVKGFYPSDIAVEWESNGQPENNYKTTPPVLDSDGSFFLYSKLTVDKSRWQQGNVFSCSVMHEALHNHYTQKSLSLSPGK
light: B1 light with Q45E
notes: IgG1-P238K; also called HC2/LC3
  Kd: 3.3 nM

B30: M35 (HC-K12Q,K13Q,K23Q / LC-K45E) (antibody, human IgG1, kappa, V domains shown)
VH: B15 VH
VL: B15 VL with Q45E
notes: IgG1-P238K; also called HC3/LC3
  Kd: 3.7 nM

B31: M39 (HC-K23E / LC-K45E) (antibody, human IgG1, kappa)
heavy: not shown
light: B1 light with Q45E
notes: IgG1-P238K; also called HC7/LC3
  Kd: 4.6 nM

B32: M40 (HC-R38Q,K63Q,R67Q / LC-K45E) (antibody, human IgG1, kappa, V domains shown)
VH: B15 VH with Q12K, Q13K, Q23K, R38Q, K63Q, R67Q
VL: B15 VL with Q45E
notes: IgG1-P238K; also called HC8/LC3
  Kd: 3.1 nM

B33: M41 (HC-K63Q,R67E / LC-K45E) (antibody, human IgG1, kappa, V domains shown)
VH: B15 VH with Q12K, Q13K, Q23K, K63Q, R67E
VL: B15 VL with Q45E
notes: IgG1-P238K; also called HC9/LC3
  Kd: 3.3 nM

B34: M42 (HC-R67E / LC-K45E) (antibody, human IgG1, kappa, V domains shown)
VH: B15 VH with Q12K, Q13K, Q23K, R67E
VL: B15 VL with Q45E
notes: IgG1-P238K; also called HC10/LC3
  Kd: 3 nM

B35: M43 (HC-R57E / LC-K45E) (antibody, human IgG1, kappa, V domains shown)
VH: B15 VH with Q12K, Q13K, Q23K, R57E
VL: B15 VL with Q45E
notes: IgG1-P238K; also called HC11/LC3
  Kd: 11.7 nM

B36: M44 (HC-R57E,K74Q / LC-K45E) (antibody, human IgG1, kappa, V domains shown)
VH: B15 VH with Q12K, Q13K, Q23K, R57E, K74Q
VL: B15 VL with Q45E
notes: IgG1-P238K; also called HC12/LC3
  Kd: 17.2 nM
